{"source": "patent US20180185504A1", "about": "(Regeneron, published 2018)", "binders": {"B1": {"name": "H1H6975N (antibody, human IgG1, V domains shown)", "VH": "EVHLVESGGGLVQPGGSLRLSCAASGFTFSSYEMNWVRQTPGKGLEWISHISSRSVIIYYADSVKGRFTISRDNAKNSLFLQMNSLRAEDTAVYFCAGITIFGIPEYWGQGTLVTVSS", "VL": "EIVLTQSPATLSLSPGERATLSCRASQSVSSYFAWYQQKPGQAPRLLIYDASSRATGIPTRFSGSGSGTDFTLTISSLEPEDFAVYYCQQRSSWPITFGQGTRLEIK", "notes": "also called H2M6975N"}, "B2": {"name": "H1H6800P (antibody, human IgG1, V domains shown)", "VH": "EVQLVESGGGLVQPGRSLRLSCAASGFTFDGYAMHWVRQGPGKGLEWVSGISWYSDTLGYADSVKGRFTISRDNAKNSLYLQMNSLRTEDTAFYYCAKISSSGWAFDYWGQGTLVTVSS", "VL": "EIVLTQSPGTLSLSPGERATLSCRASHSVSSAYLAWYQQKPGQTPRLLIYGTSSRATGIPDRFSGSGSGTDFTLTISRLEPEDFAVYYCQQYGSSPLFTFGPGTKVDIK", "notes": "human IgG1 Fc (H1H)"}, "B3": {"name": "H1H6967N (antibody, human IgG1, V domains shown)", "VH": "EVQLVESGGDLVHPGRSLRLSCAASGFPFDEYAMHWVRQVPGKGLEWVSGISWSNNNIGYADSVKGRFTISRDNAKNSLYLQMNSLRPEDTAFYYCAKSGIFDSWGQGTLVTVSS", "VL": "EIVMTQSPATLSVSPGERATLSCRASQSVSRDLAWYQQKPGQAPRLLIHGASTRATGIPARFSGSGSGAEFTLIISSLQSEDFAVYYCQQYNNWPLTFGGGTKVEIK", "notes": "also called H2M6967N"}, "B4": {"name": "H1H6958N2 (antibody, human IgG1, V domains shown)", "VH": "QVQLVESGGGVVQPGRSLRLSCGASGFTFRNYGMQWVRQGPGKGLEWVTLISFDGNDKYYADSVKGRFTISRDNSKNTLFLQMNSLRTEDTAVYYCARGGDFDYWGQGTLVTVSS", "VL": "DIQMTQSPSSLSASVGDRVTITCRASQDIRKDLGWYQQKPGKAPKRLIYAASSLHSGVPSRFSGSGSGTEFTLTISSLQPEDFATYYCLQHNSYPMYTFGQGTKLEIK", "notes": "also called H2M6958N2"}, "B5": {"name": "H1H6803P (antibody, human IgG1, V domains shown)", "VH": "EVQLVESGGGVVRPGGSLRLSCAASGFKFDDYGMTWVRHVPGKGLEWVSGINWNGGRTGYTDSVKGRFTISRDNAKNSLYLQMNSLRAEDTALYHCAGARRDAFDIWGQGTMVTVSS", "VL": "DIQMTQSPSSLSASIGDRVTITCRASQNIIKYLNWYQQNAGKAPKLLIYTASSLQSGVPSRFSGSGSGTDFTLTISSLQPEDFATYYCQQSSSSPYTFGQGTKLEIK", "notes": "human IgG1 Fc (H1H)"}, "B6": {"name": "H1H6762P (antibody, human IgG1, V domains shown)", "VH": "QVQLVESGGGVVQPGRSLRLSCAASGFTFSHYGMVWVRQPPGKGLEWVALISFDGTTKYYADSVKGRFTISRDNSKNTLYLQMNSLRAEDTAVYFCVGAIAAAAFDLWGRGTLVTVSS", "VL": "EIVMTQSPATLSVSPGERATLSCRASQSVSSDLAWYQQKPGQAPRLLIYSASARATGIPARFTGSGSGTDFTLTISSLQSEDFAVYYCQQYNNWPMYTFGQGTKLEIK", "notes": "human IgG1 Fc (H1H)"}, "B7": {"name": "H1H6765P (antibody, human IgG1, V domains shown)", "VH": "EVQLVESGGGVVRPGGSLRLSCVGSGFSFDDHGMNWVRQGPGKGLEWVSGFNWNGGSTNYAESVKGRFTISRDNARNSLFLQMNSLRAEDTALYYCVRGRSGWFNDAFDVWGPGTMVTVSS", "VL": "EIVLTQSPGTLSLSPGERATLSCRASQTINSNYLAWYRQKPGQTPRLLIYGTSSRATGIPDRFSGSGSGTDFSLTISRLEPEDFAVFYCQQYAGLPTFGPGTKVDIK", "notes": "human IgG1 Fc (H1H)"}, "B8": {"name": "H1H6782P (antibody, human IgG1, V domains shown)", "VH": "EVQLVESGGGLVQPGRSLRLSCAASGFTFDDYAMHWVRQAPGKGLEWVSGIIWNSGHIGYGDSVKGRFTISRDNAKKSLYLQMNSLRAEDTALYYCARDSGRYQSYFDYWGQGTLVTVSS", "VL": "DIQMTQSPSTLSASVGDRVTITCRASHIISSWLAWYQQKPGKAPKVLIFKASSLESGVPSRFSGSGSGTEFTLTISSLQPDDFATYYCQQYNTYSRTFGQGTKVEIK", "notes": "human IgG1 Fc (H1H)"}, "B9": {"name": "H1H6793P (antibody, human IgG1, V domains shown)", "VH": "EVQLVESGGGLVQPGGSLRLSCAASGFSFSIYAMSWFRQAPGKGLEWVSAINGRGDGTHYADSVKGRFTISRDNSKTTLYLQMSSLRAEDTAVYYCAKPVMSTNGFDIWGQGTMVTVSS", "VL": "DIQMTQSPSTLSASVGDRVTITCRASQSISSWLAWYQLKPGKAPKLLIYKASNLESGVPSRFSGSGSGTEFTLTISSLQPDDFATYYCQQYNIYWTFGQGTKVEIK", "notes": "human IgG1 Fc (H1H)"}, "B10": {"name": "H1H6785P (antibody, human IgG1, V domains shown)", "VH": "EVQLVESGGGLVQPGGSLRLSCAASGFTFSSYEMNWVRQAPGKGLEWISYISSRGGTIYYADSIKGRFTIYRDNARNSLYLQMNSLRAEDTAIYYCARLSGVDIFDIWGQGTMVTVSS", "VL": "DIQMTQSPSSLSASVGDRVTITCRASQGISNYLAWYQQKPGKVPKLLIYFASTLQSGVPSRFSGGGSGTDFTLTISSLQPEDVATYYCQRYNSAPLTFGGGTKVEIK", "notes": "human IgG1 Fc (H1H)"}, "B11": {"name": "H1H6976N (antibody, human IgG1, V domains shown)", "VH": "EVQLLESGGGFVQPGGSLRLSCAASGFTFSSYAMSWVRQAPGKGLEWVSIISSNGRYTYYADSVKGRFTISRDNSKNTLYLQMNSLRAEDTAVYYCATVTGDWFDPWGQGTLVTVSS", "VL": "DIQLTQSPSFLSASVGDRVTITCWASQDIDISLAWYQQKPGKAPKLLIYAASTLQSGVPSKFSGSGSGTDFTLTISSLQPEDFSTYYCQQLNSYPITFGQGTRLDIK", "notes": "also called H2M6976N"}}, "note": "Where a chain is given by its changes, count along the chain named. Names may count otherwise.", "data": [{"target": "T1, mouse PRLR construct with an HA tag on HEK293/mPRLR cells (mouse, UniProt Q08501 20-608)", "T1 construct": "whole, on cells; stably transfected into HEK293", "T1 sequence (looked up)": "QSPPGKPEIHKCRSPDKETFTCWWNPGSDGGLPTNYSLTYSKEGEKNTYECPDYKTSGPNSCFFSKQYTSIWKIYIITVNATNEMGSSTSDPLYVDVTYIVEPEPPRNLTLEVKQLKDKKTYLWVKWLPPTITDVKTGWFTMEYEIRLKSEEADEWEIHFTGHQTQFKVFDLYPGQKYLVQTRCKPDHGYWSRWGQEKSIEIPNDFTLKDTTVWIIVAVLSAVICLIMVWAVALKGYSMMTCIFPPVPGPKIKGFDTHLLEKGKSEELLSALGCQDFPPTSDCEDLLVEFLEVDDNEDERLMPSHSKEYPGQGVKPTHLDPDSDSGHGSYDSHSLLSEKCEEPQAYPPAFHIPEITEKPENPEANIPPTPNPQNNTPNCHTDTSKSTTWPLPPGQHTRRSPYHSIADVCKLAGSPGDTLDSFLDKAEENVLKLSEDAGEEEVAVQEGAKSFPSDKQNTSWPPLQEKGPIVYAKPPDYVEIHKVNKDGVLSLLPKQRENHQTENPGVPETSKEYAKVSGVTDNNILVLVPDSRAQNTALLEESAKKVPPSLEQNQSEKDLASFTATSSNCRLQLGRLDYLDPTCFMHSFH", "assay": "FACS on HEK293/mPRLR cells", "units": {"FACS Cell Binding (Fold Above Background)": "fold"}, "values": [{"binder": "B1", "FACS Cell Binding (Fold Above Background)": 1}, {"binder": "B2", "FACS Cell Binding (Fold Above Background)": 1}, {"binder": "B3", "FACS Cell Binding (Fold Above Background)": 2}, {"binder": "B4", "FACS Cell Binding (Fold Above Background)": 1}, {"binder": "B5", "FACS Cell Binding (Fold Above Background)": 1}, {"binder": "B6", "FACS Cell Binding (Fold Above Background)": 2}, {"binder": "B7", "FACS Cell Binding (Fold Above Background)": 1}, {"binder": "B8", "FACS Cell Binding (Fold Above Background)": 4}, {"binder": "B9", "FACS Cell Binding (Fold Above Background)": 2}, {"binder": "B10", "FACS Cell Binding (Fold Above Background)": 2}, {"binder": "B11", "FACS Cell Binding (Fold Above Background)": 1}]}, {"target": "T2, hPRLR.mmh (soluble monomeric human PRLR) (human)", "T2 construct": "soluble monomeric PRLR protein", "T2 chain": "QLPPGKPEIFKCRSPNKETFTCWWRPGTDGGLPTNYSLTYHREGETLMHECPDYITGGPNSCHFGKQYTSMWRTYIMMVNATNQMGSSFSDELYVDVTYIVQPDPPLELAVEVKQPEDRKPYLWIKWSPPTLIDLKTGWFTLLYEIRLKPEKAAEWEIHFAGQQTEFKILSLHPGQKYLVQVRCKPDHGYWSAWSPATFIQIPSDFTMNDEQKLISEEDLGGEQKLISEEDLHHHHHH", "assay": "SPR (Biacore), antibody capture, 37 C", "description": "(§1) Measurements were conducted on a T200 Biacore instrument. Kinetic association (kₐ) and dissociation (kd) rate constants were determined by processing and fitting the data to a 1:1 binding model using Scrubber 2.0 curve fitting software.", "units": {"Kd": "nM", "T 1/2": "min", "koff": "s⁻¹", "kon": "M⁻¹ s⁻¹"}, "values": [{"binder": "B1", "Kd": 1.29, "T 1/2": 42.3, "koff": 0.000273, "kon": 211000}, {"binder": "B2", "Kd": 1.47, "T 1/2": 10, "koff": 0.00119, "kon": 808000}, {"binder": "B3", "Kd": 2.2, "T 1/2": 12.4, "koff": 0.000933, "kon": 424000}, {"binder": "B4", "Kd": 3.16, "T 1/2": 8.8, "koff": 0.00131, "kon": 413000}, {"binder": "B5", "Kd": 2.83, "T 1/2": 32, "koff": 0.000364, "kon": 129000}, {"binder": "B6", "Kd": 0.48, "T 1/2": 25, "koff": 0.000455, "kon": 948000}, {"binder": "B7", "Kd": 0.292, "T 1/2": 32, "koff": 0.000366, "kon": "1.25e+06"}, {"binder": "B8", "Kd": 1.28, "T 1/2": 16, "koff": 0.000716, "kon": 557000}, {"binder": "B9", "Kd": 3.02, "T 1/2": 11, "koff": 0.00102, "kon": 339000}, {"binder": "B10", "Kd": 1.14, "T 1/2": 24, "koff": 0.000484, "kon": 426000}, {"binder": "B11", "Kd": 4.04, "T 1/2": 3.7, "koff": 0.00314, "kon": 777000}]}, {"target": "T3, mfPRLR.mmh (soluble monomeric macaca fascicularis PRLR) (macaca fascicularis)", "T3 construct": "soluble monomeric PRLR protein; also called macaca fascicularis (mf) PRLR.mmh; monkey PRLR", "T3 chain": "T2 chain with I76V, A110T, I125M, I158T, T207I", "assay": "SPR (Biacore), antibody capture, 37 C", "description": "as §1", "units": {"Kd": "nM", "T 1/2": "min", "koff": "s⁻¹", "kon": "M⁻¹ s⁻¹"}, "values": [{"binder": "B1", "Kd": 2.27, "T 1/2": 36.4, "koff": 0.000317, "kon": 140000}, {"binder": "B2", "Kd": 2.48, "T 1/2": 11, "koff": 0.00109, "kon": 439000}, {"binder": "B3", "Kd": 4.54, "T 1/2": 7.1, "koff": 0.00162, "kon": 356000}, {"binder": "B4", "Kd": 4.08, "T 1/2": 8.6, "koff": 0.00134, "kon": 328000}, {"binder": "B5", "Kd": 7.28, "T 1/2": 18, "koff": 0.000636, "kon": 87300}, {"binder": "B6", "Kd": 0.823, "T 1/2": 21, "koff": 0.000558, "kon": 679000}, {"binder": "B7", "Kd": 0.0504, "T 1/2": 215, "koff": "5.37e-05", "kon": "1.06e+06"}, {"binder": "B8", "Kd": 1.99, "T 1/2": 15, "koff": 0.000767, "kon": 385000}, {"binder": "B9", "Kd": 4.59, "T 1/2": 11, "koff": 0.00107, "kon": 233000}, {"binder": "B10", "Kd": 1.52, "T 1/2": 26, "koff": 0.00045, "kon": 297000}, {"binder": "B11", "Kd": 5.24, "T 1/2": 3.7, "koff": 0.00316, "kon": 603000}]}]}
